Experimental data reported in article PMC13156308, “Proximal proteomics analysis reveals DNA polymerase δ subunit 3 is a new MCM2 binding partner and promotes parental histones inheritance in mammalian cells” (Cell Death and Differentiation, 2025).

Target: T1, GST-tagged MCM2 (human, UniProt P49736 1-904)
T1 construct: MCM2, amplified from cDNA of human MCF-7 cells, in pGEX-C5X; called MCM2-His in the three-protein pull-down; also called GST-MCM2; MCM2-His; source: E. coli BL21, purified (Ni-NTA); not shown: GST, N-terminal, kept; His tag, C-terminal, kept
T1 sequence (P49736 whole entry): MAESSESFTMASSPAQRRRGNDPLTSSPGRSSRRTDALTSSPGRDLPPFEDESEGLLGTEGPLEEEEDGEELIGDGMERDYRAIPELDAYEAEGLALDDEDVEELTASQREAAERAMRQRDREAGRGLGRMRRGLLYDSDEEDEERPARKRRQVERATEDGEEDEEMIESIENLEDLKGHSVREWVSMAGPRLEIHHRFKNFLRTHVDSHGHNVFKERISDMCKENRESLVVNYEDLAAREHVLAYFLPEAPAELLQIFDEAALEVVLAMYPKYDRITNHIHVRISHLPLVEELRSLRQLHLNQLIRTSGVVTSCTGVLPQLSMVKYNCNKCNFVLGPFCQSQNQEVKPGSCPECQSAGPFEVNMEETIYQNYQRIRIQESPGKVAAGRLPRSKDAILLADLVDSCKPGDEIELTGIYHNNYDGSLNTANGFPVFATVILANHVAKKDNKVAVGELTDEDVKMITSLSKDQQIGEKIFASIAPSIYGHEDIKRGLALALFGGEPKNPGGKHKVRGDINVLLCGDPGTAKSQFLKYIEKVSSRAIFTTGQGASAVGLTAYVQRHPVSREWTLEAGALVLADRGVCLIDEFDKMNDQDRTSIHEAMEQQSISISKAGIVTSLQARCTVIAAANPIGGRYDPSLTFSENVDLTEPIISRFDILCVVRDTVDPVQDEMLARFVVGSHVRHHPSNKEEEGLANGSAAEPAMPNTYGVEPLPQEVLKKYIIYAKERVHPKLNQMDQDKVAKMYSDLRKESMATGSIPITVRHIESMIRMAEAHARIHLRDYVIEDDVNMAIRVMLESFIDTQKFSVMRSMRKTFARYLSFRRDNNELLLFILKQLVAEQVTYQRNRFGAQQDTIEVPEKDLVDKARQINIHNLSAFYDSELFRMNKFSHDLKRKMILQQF
Assay: BLI; MCM2 immobilised on Anti-GST biosensors, BLItz, 1x PBS and 0.02% Tween; analyte 0-50.0 nM
Details: both partners purified

Kd: 10.2 nM
B1: full-length strep-tagged POLD3 (natural protein, human, UniProt Q15054 1-466, looked up)
chain: MADQLYLENIDEFVTDQNKIVTYKWLSYTLGVHVNQAKQMLYDYVERKRKENSGAQLHVTYLVSGSLIQNGHSCHKVAVVREDKLEAVKSKLAVTASIHVYSIQKAMLKDSGPLFNTDYDILKSNLQNCSKFSAIQCAAAVPRAPAESSSSSKKFEQSHLHMSSETQANNELTTNGHGPPASKQVSQQPKGIMGMFASKAAAKTQETNKETKTEAKEVTNASAAGNKAPGKGNMMSNFFGKAAMNKFKVNLDSEQAVKEEKIVEQPTVSVTEPKLATPAGLKKSSKKAEPVKVLQKEKKRGKRVALSDDETKETENMRKKRRRIKLPESDSSEDEVFPDSPGAYEAESPSPPPPPSPPLEPVPKTEPEPPSVKSSSGENKRKRKRVLKSKTYLDGEGCIVTEKVYESESCTDSEEELNMKTSSVHRPPAMTVKKEPREERKGPKKGTAALGKANRQVSITGFFQRK
notes: full-length human POLD3 gene, synthesised and codon-optimised, in pET28b; also called purified POLD3; Strep II-tagged POLD3; source: E. coli BL21, purified (Ni-NTA); not shown: twin-strep, C-terminal, kept
